Source: the RNAGym collection of RNA variant scans (doi:10.7554/elife.80360)

B1: HDV Ribozyme (parent)
chain: GGCCGGCAUGGUCCCAGCCUCCUCGCUGGCGCCGGCUGGGCAACAUUCCGAGGGGACCGUCCCCUCGGUAAUGGCGAAUGGGACCCA

Variants of: B1
Experiment: self-cleavage, relative activity (ratio to wild type); higher = more cleavage; co-transcriptional

Row | Variant | self-cleavage
1 | GGCCGGCAUGGUCACAGCCUCCUCGCUGGCGCCGGCUGGGCAACAUUCCGAGGGGACCGUCCCCUCGGUAAUGGGGAAUGGGACCCA [C14A C75G] | 0.256
2 | GGCCGGCAUGGUCACAGCCUCCUCGCUGGCGCCGGGUGGGCAACAUUCCGAGGGGACCGUCCCCUCGGUAAUGGCGAAUGGGACCCA [C14A C36G] | 0.107
3 | GGCCGGCAUGGUCACAGCCUCCUCGCUGGCGCCGGCUGGACAACAUUCCGAGGGGACCGUCCCCUCGGUAAUGGCGAAUGGGACCCA [C14A G40A] | 0.706
4 | GGCCGGCAUGGUCACAGCCUCCUCGCUGGCGCCGGCUGGGCAACAUUCCGAGGGGACCGUCCCCUCAGUAAUGGCGAAUGGGACCCA [C14A G67A] | 0.435
5 | GGCCGGCAUGGUCACAGCCUCCUCGCUGGCGCCGGCUGGGCAACAUUCCGAGGGGACCGUCCCCUCUGUAAUGGCGAAUGGGACCCA [C14A G67U] | 0.532
6 | GGCCGGCAUGGUCACAGCCUCCUCGCUGGCGCCGGCUGGGCAACAUUCCGAGGGGACCGUCUCCUCGGUAAUGGCGAAUGGGACCCA [C14A C62U] | 0.623
7 | GGCCGGCAUGGUCACAGCCUCCUCGCUGGCGCCGGCUGGGCAACAUUCCGAGGGGACCGUCGCCUCGGUAAUGGCGAAUGGGACCCA [C14A C62G] | 0.582
8 | GGCCGGCAUGGUCACAGCCUCCUCGCUGGCGCCGGCUGGGCAACAUUCCGAGGGGACCGUCACCUCGGUAAUGGCGAAUGGGACCCA [C14A C62A] | 1.06
9 | GGCCGGCAUGGUCACAGCCUCCUCGCUGGCGCCGGCUGGGCAACAUUCCGAGGGGAGCGUCCCCUCGGUAAUGGCGAAUGGGACCCA [C14A C57G] | 0.72
10 | GGCCGGCAUGGUCACAGCCUCCUCGCUGGCGCCGGCUGGGCAACAUUCCGAGGGGAUCGUCCCCUCGGUAAUGGCGAAUGGGACCCA [C14A C57U] | 1.23
11 | GGCCGGCAUGGUCACAGCCUCCUCGCUGGCGCCUGCUGGGCAACAUUCCGAGGGGACCGUCCCCUCGGUAAUGGCGAAUGGGACCCA [C14A G34U] | 0.101
12 | GGCCGGCAUGGUCACAGCCUCCUCGCUGGCGCCGGCUUGGCAACAUUCCGAGGGGACCGUCCCCUCGGUAAUGGCGAAUGGGACCCA [C14A G38U] | 0.182
13 | GGCCGGCAUGGUCACAGCCUCCUCGCUGGCGCCGGCUAGGCAACAUUCCGAGGGGACCGUCCCCUCGGUAAUGGCGAAUGGGACCCA [C14A G38A] | 0
14 | GGCCGGCAUGGUCACAGCCUCCUCGCUGGCGCCGGCUCGGCAACAUUCCGAGGGGACCGUCCCCUCGGUAAUGGCGAAUGGGACCCA [C14A G38C] | 0.141
15 | GGCCGGCAUGGUCACAGCCUCCUCGCUGGCGCCGGCUGGGCAACAUUCCGAGGGGACUGUCCCCUCGGUAAUGGCGAAUGGGACCCA [C14A C58U] | 0.705
16 | GGCCGGCAUGGUCACAGCCUCCUCGCUGGCGCCGGCUGGGCAACAUUCCGAGGGGACCGUCCCGUCGGUAAUGGCGAAUGGGACCCA [C14A C64G] | 0.892

Row | Variant | self-cleavage
17 | GGCCGGCAUGGUCACAGCCUCCUCGCUGGCGCCGGCUGGGCAACAUUCCGAGGGGACCGUCCCCUCGGUAAUGGCGAAUGGGACGCA [C14A C85G] | 0.906
18 | GGCCGGCAUGGUCACAGCCUCCUCGCUGGCGCCGGCUGGGCAACAUUCCGAGGGGACCGUCCCCUCGGUAAUGGCGAAUGGGACUCA [C14A C85U] | 0.724
19 | GGCCGGCAUGGUCACAGCCUCCUCGCUGGCGCCGGCUGGGCAACAUUCCGAGGGGACCGUCCCCUCGCUAAUGGCGAAUGGGACCCA [C14A G68C] | 0.388
20 | GGCCGGCAUGGUCACAGCCUCCUCGCUGGCGCCGGCUGGGCAACAUUCCGAGGGGACCGUCCCCUCGUUAAUGGCGAAUGGGACCCA [C14A G68U] | 0.462
21 | GGCCGGCAUGGUCACAGCCUCCUCGCUGGCGCCGGCUGGGCAACAUUCUGAGGGGACCGUCCCCUCGGUAAUGGCGAAUGGGACCCA [C14A C49U] | 0.7
22 | GGCCGGCAUGGUCACAGCCUCCUCGCUGGCGCCGGCUGGGCAACAUUCGGAGGGGACCGUCCCCUCGGUAAUGGCGAAUGGGACCCA [C14A C49G] | 0.101
23 | GGCCGGCAUGGUCACAGCCUCCUUGCUGGCGCCGGCUGGGCAACAUUCCGAGGGGACCGUCCCCUCGGUAAUGGCGAAUGGGACCCA [C14A C24U] | 0.0361
24 | GGCCGGCAUGGUCACAGCCUCCUCGCUGGCGCCGGCUGGGCAACAUUCCGAGGGGACCGUUCCCUCGGUAAUGGCGAAUGGGACCCA [C14A C61U] | 0.656
25 | GGCCGGCAUGGUCACAGCCUCCUCGCUGGCGCCGGCUGGGCAACAUUCCGAGGGGACCUUCCCCUCGGUAAUGGCGAAUGGGACCCA [C14A G59U] | 1.05
26 | GGCCGGCAUGGUCACAGCCUCCUCGCUGGCGCCGGCUGGGCAACAUUCCGAGGGGACCCUCCCCUCGGUAAUGGCGAAUGGGACCCA [C14A G59C] | 0.739
27 | GGCCGGCAUGGUCACAGCCUCCUCGCUGGCGUCGGCUGGGCAACAUUCCGAGGGGACCGUCCCCUCGGUAAUGGCGAAUGGGACCCA [C14A C32U] | 0.458
28 | GGCCGGCAUGGUCACAGCCUCCUCGCUGGCGACGGCUGGGCAACAUUCCGAGGGGACCGUCCCCUCGGUAAUGGCGAAUGGGACCCA [C14A C32A] | 0.148
29 | GGCCGGCAUGGUCACAGCCUCCUCGCUGGCGCCGGCUGGGCAACAUUCCGAUGGGACCGUCCCCUCGGUAAUGGCGAAUGGGACCCA [C14A G52U] | 1.03
30 | GGCCGGCAUGGUCACAGCCUCCUCGCUGGCGCCGGCUGGGCAACAUUCCGAAGGGACCGUCCCCUCGGUAAUGGCGAAUGGGACCCA [C14A G52A] | 0.567
31 | GGCCGGCAUGGUCACAGCCUCCUCGCUGGCGCCGGCUGGGCAACAUUCCGAGGGUACCGUCCCCUCGGUAAUGGCGAAUGGGACCCA [C14A G55U] | 0.73
32 | GGCCGGCAUGGUCACAGCCUCCUCGCUGGCGCCGGCUGGGCAACAUUCCGAGGGCACCGUCCCCUCGGUAAUGGCGAAUGGGACCCA [C14A G55C] | 0.767
